Assay results from patent US20050192282A1, “Chemokine inhibiting piperazine derivatives and their use to treat multiple myeloma” (Schering Aktiengesellschaft, priority 2004, published 2005).
Entries after “also recorded” stand apart in the source; their conditions may differ.

T1: Human CCR1 (Homo sapiens, UniProt P32246)
T1 sequence (P32246 1-355): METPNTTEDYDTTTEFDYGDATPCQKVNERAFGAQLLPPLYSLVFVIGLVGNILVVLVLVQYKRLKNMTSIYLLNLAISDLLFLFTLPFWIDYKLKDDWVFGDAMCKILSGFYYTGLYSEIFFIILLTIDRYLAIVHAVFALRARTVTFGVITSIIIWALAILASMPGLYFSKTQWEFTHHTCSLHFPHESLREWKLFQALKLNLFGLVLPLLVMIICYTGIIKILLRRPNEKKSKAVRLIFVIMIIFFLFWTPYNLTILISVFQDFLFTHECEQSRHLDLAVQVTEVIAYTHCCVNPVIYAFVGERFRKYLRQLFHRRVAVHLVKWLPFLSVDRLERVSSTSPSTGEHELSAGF

B1: MIP-1α: human CC chemokine, ligand for CCR1 and CCR5; recombinant form used as stimulus (protein, UniProt P10147 24-92, looked up)
C-C motif chemokine 3: SLAADTPTACCFSYTSRQIPQNFIADYFETSSQCSKPGVIFLTKRSRQVCADPSEEWVQKYVSDLELSA
B2: MIP-1β: human chemokine binding CCR1 with low affinity (protein, UniProt P13236 24-92, looked up)
C-C motif chemokine 4: APMGSDPPTACCFSYTARKLPRNFVVDYYETSSLCSQPAVVFQTKRSKQVCADPSESWVQEYVYDLELN

Experiments:
[1] = target: T1, Human CCR1; settings: cited from earlier work
[2] = test system: β1 integrin mRNA expression in MM.1S human Myeloma cells; experiment: RT-PCR analysis of β1 integrin mRNA expression in MM.1S myeloma cells cocultured with ST2 stromal cells; assay type: cell-based; settings: MM.1S cocultured with ST2; treated with 1 ng/ml of rhMIP-1a, 12 hours

Molecule	ability to signal through human CCR1 [1]	β1 integrin mRNA expression levels [2]
MCP-1: human chemokine binding CCR1 with low affinity	neither ligand is able to signal	
B1		significantly increased; also recorded: significantly enhanced
B2	neither ligand is able to signal	
